Two molecules from US20250243277A1 (AVACTA LIFE SCIENCES, published 2025) can be followed below.

Assay [1] deals with T1, human PD-L1-Fc (R&D Systems) (human, UniProt Q9NZQ7 19-239).
T1 construct: Bought from R&D Systems; Biotinylated in-house for the phage selection; also called huPD-L1-Fc; human PD-L1-Fc antigen; not shown: Fc part of the bought fusion
As to the kind of experiment: SPR (Biacore); huPD-L1-Fc captured on Protein A chip, Affimer as analyte 0.125 to 2 nM; monomer, huPD-L1-Fc captured on Protein A chip. The procedure: (§1) Secreted AFFIMER® clones were purified from supernatant using Ni Sepharose Excel resin (Cytiva) as described in Example 2 and run-on SEC-HPLC to assess their purity and molecular weight (FIG. 11). BIACORE™ was run using a sensor chip Protein A (Cytiva) capturing huPD-L1-Fc (R&D System), and AFFIMER® clones were run in solution as analyte increasing from 0.125 to 2 nM titration and a dissociation time of 2000 seconds. Regeneration of the antigen captured on the chip was performed using a 10 mM glycine pH1.5 solution. […] Avidity was further shown in both the PD-L1 binding ELISA and the Promega cell-based assay, with the ILF dimer blocking the PD-L1:PD1 interaction more strongly than a mammalian produced monomer (FIGS. 13-14).
A general note: SPR reads the build-up and loss of mass on a sensor chip optically.

Assay [2] deals with T1, human PD-L1-Fc (R&D Systems). Kind of assay: PD-L1 binding ELISA (direct binding, absorbance 450nm - 630nm rises with the Affimer concentration). Column head on the sheet reads 'IC50 nM' although the curve is a half-maximal binding curve; the text does not name the PD-L1 reagent on the plate. (In general: In an ELISA, binding on a coated surface is turned into a signal by an enzyme label.)

The target is the same in assay [3]. Kind of assay: SPR (Biacore): huPD-L1-Fc captured on a Protein A sensor chip, HEK-expressed Affimer as analyte rising from 0.125 to 2 nM, 2000 s dissociation. The procedure:
as §1

Assay [4] has the same target. Kind of assay: SPR (Biacore); huPD-L1-Fc captured on Protein A chip, Affimer as analyte 0.125 to 2 nM; ILF homodimer (avidity), huPD-L1-Fc captured on Protein A chip. The procedure: as §1

T1 sequence (Q9NZQ7 19-239 limits assumed): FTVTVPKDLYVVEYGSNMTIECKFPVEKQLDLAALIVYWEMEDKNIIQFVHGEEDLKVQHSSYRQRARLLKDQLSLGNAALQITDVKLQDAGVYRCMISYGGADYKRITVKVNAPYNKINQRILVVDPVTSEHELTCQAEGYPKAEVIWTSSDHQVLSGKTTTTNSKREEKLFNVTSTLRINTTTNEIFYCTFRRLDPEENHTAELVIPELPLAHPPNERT

B1: Clone 80 monomer (mammalian, HEK-expressed) (designed binder)
chain: MIPGGLSEAKPATPEIQEIVDKVKPQLEEKTGETYGKLEAVQYKTQVVRRKHFPQWPGTNYYIKVRAGDNKYMHLKVFKSLDLQPREVFQEDLVLTGYQVDKNKDDELTGF
notes: also called mammalian produced monomer; mammalian expressed AFFIMER Clone 80 monomer
What is called IC50 is the concentration at which inhibition is half-maximal. A lower IC50 goes with greater potency. As usually defined, the koff is the rate constant with which the complex falls apart. Broadly, the kon is the second-order rate constant of association. A higher kon goes with faster complex formation. In the case of B1, the Kd in assay [1] stood at 0.54 nM. In assay [2], this molecule yielded an IC50 of 0.26 nM. Also, in assay [3], the koff is 0.0014 s⁻¹ and the kon was 2.58e+06 M⁻¹ s⁻¹.

B2: Clone 80 ILF (designed binder)
chain: MIPGGLSEAKPATPEIQEIVDKVKPQLEEKTGETYGKLEAVQYKTQVVRRKHFPQWPGTNYYIKVRAGDNKYMHLKVFKSLDLQPREVFQEDLVLTGYQVDKNKDDELTGFAEAAAKEAAAKEAAAKEAAAKEAAAKEAAAKMIPGGLSEAKPATPEIQEIVDKVKPQLEEKTGETYGKLEAVQYKTQVVRRKHFPQWPGTNYYIKVRAGDNKYMHLKVFKSLDLQPREVFQEDLVLTGYQVDKNKDDELTGF
notes: Two Clone 80 units in one chain joined by the rigid linker A(EAAAK)6; also called in-line fusion (ILF) homodimer; Dimer ILF format
As to B2, the Kd in assay [4] came out at 0.0103 nM. The IC50 in assay [2] turned out to be 0.05 nM. In assay [3], this molecule registered an off-rate (koff) of 4.56e-05 s⁻¹ and a kon of 4.44e+06 M⁻¹ s⁻¹.
